Consider 2 substances from paper PMC8891976.

In experiment [1] the target is ASC (apoptosis-associated speck-like protein containing a CARD) (UniProt Q9ULZ3). Briefly: real-time NMR.
In experiment [2] the target is ASCb (alternative splicing isoform of ASC) (UniProt Q9ULZ3). In words: real-time NMR.

Consider “ASC (apoptosis-associated speck-like protein containing a CARD) (from UniProt Q9ULZ3 1-195) (natural protein)”, for which, in experiment [1], the k1aveCARD (average apparent rate constant k1 of the residues of the CARD) was determined as 0.12 h⁻¹, the k1avePYD (average apparent rate constant k1 of the residues of the PYD) was found to be 0.21 h⁻¹, the k2aveCARD (average apparent rate constant k2 of the residues of the CARD) was 0.02 h⁻¹ and the k2avePYD (average apparent rate constant k2 of the residues of the PYD) was found to be 0.05 h⁻¹.

“ASCb (alternative splicing isoform of ASC) (from UniProt Q9ULZ3-2 1-176) (natural protein)”: in experiment [2], the k1 (apparent oligomerization rate constant, exponential fit) was 0.02 h⁻¹; the k1aveCARD (average apparent rate constant k1 of the residues of the CARD) was found to be 0.0288 h⁻¹; the k1avePYD (average apparent rate constant k1 of the residues of the PYD) is 0.0269 h⁻¹; the k2 (apparent oligomerization rate constant, exponential fit) worked out at 0.02 h⁻¹. In addition, in experiment [2], the k2aveCARD (average apparent rate constant k2 of the residues of the CARD) was determined as 0.0288 h⁻¹, the k2avePYD (average apparent rate constant k2 of the residues of the PYD) turned out to be 0.0269 h⁻¹, the reaction order m of oligomer formation (column of 495 μM) was determined as 3.6 and the reaction order m of oligomer formation (column of 704 μM) amounted to 3.6.
